The results in this text go back to PMC4581524 (Journal of cellular biochemistry, 2015).

First the molecules themselves.
T1: monomeric RANK (UniProt O35305 31-214)
T1 sequence (looked up): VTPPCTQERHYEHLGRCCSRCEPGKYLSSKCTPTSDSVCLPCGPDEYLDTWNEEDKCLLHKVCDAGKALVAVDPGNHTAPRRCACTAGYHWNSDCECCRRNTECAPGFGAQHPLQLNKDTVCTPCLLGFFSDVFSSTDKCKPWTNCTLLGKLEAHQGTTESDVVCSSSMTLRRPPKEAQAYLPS

B1: RANKL K194E (ligand)
chain: KPEAQPFAHLTINAASIPSGSHKVTLSSWYHDRGWAEISNMTLSNGKLRVNQDGFYYLYANISFRHHETSGSVPTDYLQLMVYVVKTSEKIPSSHNLMKGGSTKNWSGNSEFHFYSINVGGFFKLRAGEEISIQVSNPSLLDPDQDATYFGAFKVQDID
modifications: Homotrimer; limits by convention (mouse RANKL ectodomain core). Species inferred: the printed numbering fits mouse
B2: RANKL K194E/Q236H (ligand)
chain: KPEAQPFAHLTINAASIPSGSHKVTLSSWYHDRGWAEISNMTLSNGKLRVNQDGFYYLYANISFRHHETSGSVPTDYLHLMVYVVKTSEKIPSSHNLMKGGSTKNWSGNSEFHFYSINVGGFFKLRAGEEISIQVSNPSLLDPDQDATYFGAFKVQDID
modifications: Homotrimer; limits by convention (mouse RANKL ectodomain core)
B3: RANKL K194E/Q236H/F269Y (ligand)
chain: KPEAQPFAHLTINAASIPSGSHKVTLSSWYHDRGWAEISNMTLSNGKLRVNQDGFYYLYANISFRHHETSGSVPTDYLHLMVYVVKTSEKIPSSHNLMKGGSTKNWSGNSEYHFYSINVGGFFKLRAGEEISIQVSNPSLLDPDQDATYFGAFKVQDID
modifications: Homotrimer; limits by convention (mouse RANKL ectodomain core)
B4: RANKL Q236H (ligand)
chain: KPEAQPFAHLTINAASIPSGSHKVTLSSWYHDRGWAKISNMTLSNGKLRVNQDGFYYLYANISFRHHETSGSVPTDYLHLMVYVVKTSEKIPSSHNLMKGGSTKNWSGNSEFHFYSINVGGFFKLRAGEEISIQVSNPSLLDPDQDATYFGAFKVQDID
modifications: Homotrimer; limits by convention (mouse RANKL ectodomain core)

The experiment addresses T1, monomeric RANK. Description: SPR. (In general: In SPR one partner is held on a chip, and binding of the other changes the refractive index at the surface.)
As a reminder, the Kd is the constant that tells how readily two partners part at equilibrium. Read a low Kd as a tighter complex. For orientation: koff means the rate constant with which the complex falls apart. Low readings indicate slow dissociation, high ones fast dissociation. As usually defined, the kon is a measure of how fast the partners come together. Take B1: the Kd stood at 899 nM, the koff turned out to be 0.101 s⁻¹ and the kon worked out at 113000 M⁻¹ s⁻¹.
For B2 the same measures were 67 nM, 0.017 s⁻¹ and 174000 M⁻¹ s⁻¹.
The like results for B3 were, in that order, 29 nM, 0.005 s⁻¹ and 167000 M⁻¹ s⁻¹.
For B4 the same measures were 81 nM, 0.023 s⁻¹ and 300000 M⁻¹ s⁻¹.
